Measured values reported in patent publication US20240325562A1 (published 2024).

T1: recombinant hPDGFRB ectodomain (human, UniProt P09619 33-532)
T1 chain: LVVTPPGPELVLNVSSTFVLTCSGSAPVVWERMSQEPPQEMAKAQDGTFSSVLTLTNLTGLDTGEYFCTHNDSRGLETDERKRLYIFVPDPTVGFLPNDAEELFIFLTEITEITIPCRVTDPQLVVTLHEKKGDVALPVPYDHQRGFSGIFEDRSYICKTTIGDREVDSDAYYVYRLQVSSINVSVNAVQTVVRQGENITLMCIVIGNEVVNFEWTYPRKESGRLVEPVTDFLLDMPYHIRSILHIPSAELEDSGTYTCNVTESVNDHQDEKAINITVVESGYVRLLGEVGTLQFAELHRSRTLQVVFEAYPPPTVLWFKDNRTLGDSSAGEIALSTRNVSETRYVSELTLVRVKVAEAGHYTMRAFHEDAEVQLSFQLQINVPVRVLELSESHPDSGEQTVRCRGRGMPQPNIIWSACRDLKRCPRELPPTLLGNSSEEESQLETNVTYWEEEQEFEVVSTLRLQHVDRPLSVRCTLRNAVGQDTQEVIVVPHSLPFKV

T2: full-length rat PDGFRB on cells (rat, UniProt Q05030 32-1097)
T2 chain: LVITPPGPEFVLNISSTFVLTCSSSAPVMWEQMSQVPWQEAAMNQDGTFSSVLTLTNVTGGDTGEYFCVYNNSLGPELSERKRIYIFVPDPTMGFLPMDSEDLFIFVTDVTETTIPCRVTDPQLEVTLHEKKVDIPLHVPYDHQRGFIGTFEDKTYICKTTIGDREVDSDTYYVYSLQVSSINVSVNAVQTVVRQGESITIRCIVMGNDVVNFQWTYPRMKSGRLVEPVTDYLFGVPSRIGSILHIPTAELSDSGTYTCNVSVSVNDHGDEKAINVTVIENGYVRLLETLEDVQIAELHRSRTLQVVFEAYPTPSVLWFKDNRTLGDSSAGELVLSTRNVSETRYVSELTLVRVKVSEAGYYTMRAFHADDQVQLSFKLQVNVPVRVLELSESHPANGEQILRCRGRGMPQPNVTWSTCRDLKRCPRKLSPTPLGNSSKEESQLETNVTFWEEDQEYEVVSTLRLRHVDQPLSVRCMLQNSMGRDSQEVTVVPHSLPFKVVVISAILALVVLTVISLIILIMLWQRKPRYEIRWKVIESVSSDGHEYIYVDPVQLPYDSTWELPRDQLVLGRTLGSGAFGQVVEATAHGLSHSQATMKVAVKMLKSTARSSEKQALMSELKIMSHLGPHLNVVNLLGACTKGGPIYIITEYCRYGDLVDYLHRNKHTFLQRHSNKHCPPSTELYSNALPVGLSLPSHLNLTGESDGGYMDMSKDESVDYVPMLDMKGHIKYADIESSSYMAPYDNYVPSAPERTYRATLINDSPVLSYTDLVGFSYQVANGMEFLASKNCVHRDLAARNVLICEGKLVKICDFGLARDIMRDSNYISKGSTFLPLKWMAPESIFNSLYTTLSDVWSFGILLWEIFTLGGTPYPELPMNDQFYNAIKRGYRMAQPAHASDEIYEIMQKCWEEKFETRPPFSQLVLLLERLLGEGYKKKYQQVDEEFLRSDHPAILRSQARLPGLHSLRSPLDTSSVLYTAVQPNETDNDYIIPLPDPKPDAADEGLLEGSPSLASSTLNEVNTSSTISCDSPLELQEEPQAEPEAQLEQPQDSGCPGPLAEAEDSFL

T3: recombinant rPDGFRB ectodomain (rat, UniProt Q05030 32-531)
T3 chain: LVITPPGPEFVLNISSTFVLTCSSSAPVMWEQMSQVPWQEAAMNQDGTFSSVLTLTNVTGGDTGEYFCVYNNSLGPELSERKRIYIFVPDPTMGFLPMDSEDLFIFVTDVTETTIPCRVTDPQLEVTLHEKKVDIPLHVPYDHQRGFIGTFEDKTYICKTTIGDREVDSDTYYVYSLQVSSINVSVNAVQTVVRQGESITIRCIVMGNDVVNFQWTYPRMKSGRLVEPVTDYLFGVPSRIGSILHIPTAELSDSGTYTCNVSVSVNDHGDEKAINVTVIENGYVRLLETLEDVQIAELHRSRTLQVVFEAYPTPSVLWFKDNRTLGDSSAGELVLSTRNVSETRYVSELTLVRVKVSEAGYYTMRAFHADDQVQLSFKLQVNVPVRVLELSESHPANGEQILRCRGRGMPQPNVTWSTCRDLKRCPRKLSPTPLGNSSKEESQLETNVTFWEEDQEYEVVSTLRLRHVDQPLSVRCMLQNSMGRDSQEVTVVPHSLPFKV


Experiments:
[1] = target: T1, recombinant hPDGFRB ectodomain; assay: binding to immobilized ectodomain
[2] = target: T2, full-length rat PDGFRB on cells; assay: cell binding; SCC-rPDGFRβ cells
[3] = target: T3, recombinant rPDGFRB ectodomain; assay: binding to immobilized ectodomain
[4] = target: full-length human PDGFRB on cells (human, UniProt P09619 33-1106); assay: cell binding; SCC-hPDGFRβ cells

Binder	Kd [1] [nM]	Kd [2] [nM]	Kd [3] [nM]	Kd [4] [nM]
SP05P (VHH) VHH: EVQLVESGGGLVQAGGSLRLSCAASGRTSFSGYAMAWFRQAPGKERDFVASITWSYGYTYYTDSAQGRFTISRDSAKNTVYLEMNSLKPEDTAVYYCAADPKASRFRILREYAYWGQGTQVTVSS	9.2			
SP36P (VHH) VHH: EVQLVESGGGLVQAGGSLRLSCTPSITTAGTTIMAWFRQAPGNEREFVAAIWGSKTAYGDSMKGRLTISRDNVRDNGQKTVFLQMNNLQLQDTATYYCAASSGGYVHSSTSYEIWGRGTQVTVSS		76.6	31	
SP02P (VHH) VHH: EVQLVESGGGLVQAGGSLRLSCAASESISSIEQMGWFRQAPGKQRALVAINTYGGRTVYTNSVEGRFTMSRDSAKNMVYLQMTSLEPEDTAVYYCYAQTTAWRGGVWGQGTQVTVSS	6.2			
SP20P (VHH) VHH: EVQLVESGGGLVQAGGSLRLSCVISGRTSPTYPMGWFRQSPGNEREFVASINWSGGWRNYADSVKDRFTISRDDAKNTVYLQMNSLKPEDTAVYYCARGQYSSGTPVYAHEYAYWGQGTQVTVSS	3.8			
SP14P (VHH) VHH: EVQLVESGGGLVQAGDSLRLSCVVSGLTFSRYGMGWFRQATGKEREFVGGISVGSSGTMYPNSVKGRFTISRDNAKSTVYLQMNSLKPEDTAVYFCAAIDQGSFVQQRDYRYWGQGTQVTVSS	8.6			
SP26P (VHH, In the competition assay the reporter copy carried IRDye800 on the C-terminal cysteine, which is not in the letters.) VHH: EVQLVESGGGLVQAGGSLRLSCAASGRSFSSSVMGWFRQTPGKEREFVAATRWTAASTHYADSVKGRFTISRDHAENAVFLQMNSLKPEDTAVYYCAAGNYLDTAQYRYNYWGQGTQVTVSS		0.3		
SP13P (VHH) VHH: EVQLVESGGGLVQPGGSLRLSCAASESIFSINYMAWYRQAPGKQRELVAFSIDGSSTNYVDSVRGRFTASRDNAENTLYLQMNSLKPEDTAVYYCYAQGNTWAAGVWGQGTQVTVSS	9.3			10.4
SP31P (VHH) VHH: EVQLVESGGGLVQAGGSLRLSCAASRGTFGTYIMGWFRQAPGKEREFVAAISWRGANTYYGYSVKGRFTISRDNAKNTMYLQMADLKPEDTADYYCGVHLNGTPYYYASGYRYWGQGTQVTVSS		31.8	276	
SP30P (VHH) VHH: EVQLVESGGGLVQAGGSLRLSCAASRGTFGTDIMGWFRQAPGKEREFVAAISWRGANTYYGYSVKGRFTISRDNAKNTMYLQMADLKPEDTADYYCGVHLNGTPYYYASGYRYWGQGTQVTVSS			12.2	
SP01P (VHH) VHH: EVQLVESGGGLAQAGGSLRLSCVASGNIDSANGMAWYRQAPGKQRELVAHITSGTSYYVASVEGRFTISRANAKDTWYLQMNSLKPEDTGVYYCFPIGLSAHWSQGTQVTVSS	20.4			7.8
SP27P (VHH) VHH: EVQLVESGGGLVQIGDSLRLSCAASGGTFNRYGMGWFRQAPGKEREFVAAIRWDGVDTNYADFVKGRFTISRYNAKNTAYLQMNSLKPEDTAVYYCAADRRGLYTKHAHRYDYWGQGTQVTVSS			25.5	
SP28P (VHH) VHH: EVQLVESGGGLVQAGGSLRLSCAASGSIVSFNGINWYRQAPGKQREWVGGITQGGNTMYADSVRGRFTISRDNTKNTMYLQMNSLKPEDTAVYYCRRPPVASWGQGTQVTVSS		0.5	6	
